Test results reported in PMC10967027.
Where “and” joins values, the source holds several entries; their conditions need not be identical. Equal entries are not always repeated.

Experiments:
[1] = target: 868-Z11 G104βP/T96βK single chain TCR; test: SPR; steady state; scTCR immobilised on a CM5 Series S chip by amine coupling (about 2000 RU); peptide/MHC injected at 5 μL/min at concentrations between 50 µM and 2 nM; 25 °C; HBS-EP (10 mM HEPES, 150 mM NaCl, 3 mM EDTA, 0.005% surfactant P-20, pH 7.4); 1:1 binding model; each cell one of three titrations of its group
[2] = target: 868-Z11 T96βK single chain TCR; test: as above
[3] = target: 868-Z11 A94αH/T96βK single chain TCR; test: as above
[4] = target: 868-Z11 single chain TCR (WT), displayed on yeast; test: flow cytometry on cells; yeast displaying the 868-Z11 scTCR stained with PE-conjugated SL9/HLA-A2 tetramer, 256 pM to 32.8 nM, 30 min at 4°C, PBS-BSA; MFI fit to a 1:1 binding isotherm; apparent KD; in duplicate
[5] = target: 868-Z11 T96βK single chain TCR, soluble recombinant; test: SPR; steady state; scTCR immobilised on CM5 chip by amine coupling (about 2000 RU); peptide/MHC injected at 50 µM to 2 nM, 5 μL/min; 25°C; HBS-EP pH 7.4; 1:1 model
[6] = target: 868-Z11 G104βP/T96βK single chain TCR, soluble recombinant; test: as above
[7] = target: 868-Z11 A94αH/T96βK single chain TCR, soluble recombinant; test: as above
[8] = target: 868-Z11 A94αH single chain TCR, soluble recombinant; test: SPR; single cycle kinetics; scTCR immobilised on CM5 chip by amine coupling (100-300 RU); peptide/MHC injected at 0.6-48 nM, 100 μL/min; 25°C; HBS-EP pH 7.4; 1:1 model
[9] = target: 868-Z11 G104βP single chain TCR, soluble recombinant; test: as above
[10] = target: 868-Z11 G104βP/T96βK single chain TCR, soluble recombinant

Substance	Kd [1]	Kd [2]	Kd [3]	also measured
SL9 Y3F escape variant presented by HLA-A*02:01 (from UniProt P61769 21-119) (peptide-MHC)	34 µM and 39.8 µM and 52.3 µM	38.6 µM and 39.3 µM and 58.2 µM	264 µM and 274 µM and 403 µM	
SL9 Y3F/T8V escape variant presented by HLA-A*02:01 (from UniProt P61769 21-119) (peptide-MHC)	49.1 µM and 62.5 µM	46 µM and 44.6 µM and 59 µM	324 µM and 314 µM and 475 µM	
PE-conjugated SL9/HLA-A2 tetramer (from UniProt P61769 21-119) (peptide-MHC)				Kd [4]: 0.0017 µM
SL9 Y3F/V6I escape variant presented by HLA-A*02:01 (from UniProt P61769 21-119) (peptide-MHC)	12.5 µM and 18.5 µM and 22.5 µM	9.6 µM and 10.2 µM and 15.7 µM	102 µM and 105 µM and 167 µM	
SL9 T8V escape variant presented by HLA-A*02:01 (from UniProt P61769 21-119) (peptide-MHC)	1.4 µM and 3.5 µM and 3.2 µM	1.6 µM and 1.9 µM and 2.7 µM	22.2 µM and 24.3 µM and 40.7 µM	
SL9 V6I/T8V escape variant presented by HLA-A*02:01 (from UniProt P61769 21-119) (peptide-MHC)	0.8 µM and 1.8 µM and 1.5 µM	0.8 µM and 1.1 µM and 1 µM	9.9 µM and 13.7 µM and 17.9 µM	
SL9/HLA-A2 (HIV SL9 epitope presented by HLA-A*02:01), soluble (from UniProt P61769 21-119) (peptide-MHC)				Kd [5]: 2.5 µM; Kd [6]: 2.2 µM; Kd [7]: 33 µM; Kd [8]: 0.0052 µM; Kd [9]: 0.0003 µM; peptide EC50 of IL-2 release (ELISA): CD8+ Jurkat 76 cells with the full length 868-Z11 G104βP/T96βK TCR co-cultured with T2 cells pulsed with WT SL9 peptide, 0.1 nM-100 µM [10]: 0.01 µM
SL9 V6I escape variant presented by HLA-A*02:01 (from UniProt P61769 21-119) (peptide-MHC)	0.7 µM and 1.5 µM and 1.6 µM	0.8 µM and 1.1 µM and 1.2 µM	9.5 µM and 12.4 µM and 17.9 µM	
SL9 Y3F/V6I/T8V escape variant presented by HLA-A*02:01 (from UniProt P61769 21-119) (peptide-MHC)	20.4 µM and 28.1 µM and 26.3 µM	17.3 µM and 23.8 µM and 20.2 µM	154 µM and 177 µM and 203 µM	
